Measured values as given in article PMC3946754, “Two-Stage pH Control Strategy Based on the pH Preference of Acetoin Reductase Regulates Acetoin and 2,3-Butanediol Distribution in Bacillus subtilis” (PLoS ONE, 2014).

What was measured:
[1] = substrate: CC(=O)C(C)O; assay: NADH oxidation assay, Lineweaver-Burk plot; type: biochemical, Bacillus subtilis; settings: reduction, co-substrate NADH (standard assay 0.2 mM NADH, PBS pH 6.5, 25°C preincubation), stereoisomer not told, 25.0 °C
[2] = substrate: NC(=O)C1=CN([C@@H]2O[C@H](COP(=O)(O)OP(=O)(O)OC[C@H]3O[C@@H](n4cnc5c(N)ncnc54)[C@H](O)[C@@H]3O)[C@@H](O)[C@H]2O)C=CC1; assay: NADH oxidation assay, Lineweaver-Burk plot; type: biochemical, Bacillus subtilis; settings: reduction, co-substrate acetoin (standard assay 10 mM, pH 6.5), printed kcat/Km does not fit kcat and Km, varied: cofactor
[3] = substrate: NC(=O)c1ccc[n+]([C@@H]2O[C@H](COP(=O)(O)OP(=O)(O)OC[C@H]3O[C@@H](n4cnc5c(N)ncnc54)[C@H](O)[C@@H]3O)[C@@H](O)[C@H]2O)c1; assay: NAD+ reduction assay, Lineweaver-Burk plot; type: biochemical, Bacillus subtilis; settings: oxidation, co-substrate 2,3-butanediol (standard assay 10 mM, pH 8.5), printed kcat/Km does not fit kcat and Km, varied: cofactor
purified protein = substrate: CC(O)C(C)O; assay: purified protein; settings: oxidation, co-substrate NAD+ (standard assay 1.2 mM NAD+, pH 8.5, 25°C preincubation), stereoisomer not told, printed kcat/Km does not fit kcat and Km

B1: AR/BDH (acetoin reductase/2,3-butanediol dehydrogenase) (Bacillus subtilis subsp. subtilis str. 168) (protein)
chain: MKAARWHNQKDIRIEHIEEPKTEPGKVKIKVKWCGICGSDLHEYLGGPIFIPVDKPHPLTNETAPVTMGHEFSGEVVEVGEGVENYKVGDRVVVEPIFATHGHQGAYNLDEQMGFLGLAGGGGGFSEYVSVDEELLFKLPDELSYEQGALVEPSAVALYAVRSSKLKAGDKAAVFGCGPIGLLVIEALKAAGATDIYAVELSPERQQKAEELGAIIVDPSKTDDVVAEIAERTGGGVDVAFEVTGVPVVLRQAIQSTTIAGETVIVSIWEKGAEIHPNDIVIKERTVKGIIGYRDIFPAVLSLMKEGYFSADKLVTKKIVLDDLIEEGFGALIKEKSQVKILVRPN
notes: full length, C-terminal His6 tag (from primer, not reported cut); pMA5-bdhA expressed in B. subtilis JNA 3-10; Ni-NTA and Superdex 200; subunit 38-39 kDa by SDS-PAGE
Q: With B1 as the protein, how does the Km [1] read?
A: 0.16 ± 0.005 mmol/L

Q: What about the Vmax [1] of the same protein?
A: 5.54 µM/min

Q: And the kcat [1]?
A: 0.00567 ± 0.0002 s⁻¹

Q: What about the kcat/Km [1] of the same protein?
A: 35.5 M⁻¹ s⁻¹

Q: What about the Km [2] of the same protein?
A: 0.04 ± 0.001 mmol/L

Q: What about the Vmax [2] of the same protein?
A: 14.2 µM/min

Q: What about the kcat [2] of the same protein?
A: 0.0235 ± 0.00035 s⁻¹

Q: And the Km [3]?
A: 0.08 ± 0.002 mmol/L

Q: And the Vmax [3]?
A: 14 µM/min

Q: What about the kcat [3] of the same protein?
A: 0.0232 ± 0.000267 s⁻¹

Q: What about the Km (purified protein) of the same protein?
A: 0.26 ± 0.009 mmol/L

Q: What about the Vmax (purified protein) of the same protein?
A: 2.34 µM/min

Q: And the kcat (purified protein)?
A: 0.00233 s⁻¹
